The results in this text go back to the RNAGym collection of RNA variant scans (doi:10.7554/elife.90254).

To fix the notation:
B1: LINE1-full (parent)
chain: UACGUAGGUGGUUUUCCCCUGAUAGUGCUAAGGGGGCCUGGAAGUUUGGACUGGGCAGAGCUCAACACAGCGUGGCAAAGUGGCUGUGGCUAGACUGCCUCUCUGGAUUCCUCGUCACUCAGCAGGGCAUCUCUGAGAGAAAUGCC

This series covers variants of B1. Nature of the series: self-cleavage, relative activity (ratio to wild type); higher = more cleavage; in vitro, sequencing; the parent is a self-cleaving ribozyme.
With U39C U143C, the self-cleavage was 1.33.
The same measure for U39C U143A: 1.01; for G41U U100C: 1.28; for A42G A65U: 0.32.
For U39C A59U, the self-cleavage turned out to be 0.61.
Next, U39C A59G: 0.04.
Next, A42G G44A: 1.27; U39C G83U: 0.52.
The same measure for G40A A59G: 0.06.
For G41A U102A, the self-cleavage came out at 1.05.
Next, A42G C113U: 1.12; A42G G122A: 0.92; U39C U62C: 0.09.
For the variant G41A A136U, the self-cleavage came out at 1.53.
The same measure for G40A U85A: 0.02; for G40A U85C: 0.04; for A42G A129G: 1.68.
Next, A42C A94G: 0.28.
Next, A42G U102C: 1.36; A42G C99U: 1.11; A42U A142U: 0.57.
For the variant G40A U46A, the self-cleavage was 1.23.
For the variant G40A U46C, the self-cleavage was determined as 1.4.
The same measure for U39C A129G: 1.61.
The same measure for U39C A129U: 1.05.
The same measure for G40U U85C: 0.13.
For the variant U39C U47A, the self-cleavage turned out to be 1.15.
The same measure for A42G A69C: 0.06; for A42G A69U: 0.04; for U39C A78U: 1.42.
The same measure for A43C U100C: 1.99; for U39C G122C: 0.96; for A42U U81A: 1.39.
The same measure for A42G C101A: 0.95; for G40A A140G: 1.12; for G40A U87C: 0.06.
As to A42U A107U, the self-cleavage turned out to be 0.92.
The same measure for G40A A94U: 0.26; for G40U A124G: 0.87; for A42G A141G: 1.38.
The same measure for G40A A117G: 1.03; for A42C U108C: 0.8.
The same measure for U39C U132A: 1.46.
For U39C U132C, the self-cleavage amounted to 1.32.
The same measure for U39C A50G: 0.77; for U39G U143C: 1.81; for A42U U46C: 1.37.
Next, G41A U132C: 1.25.
On to G40U A78G, for which the self-cleavage came out at 0.81.
For A42G A94G, the self-cleavage is 0.26.
For the variant A42G A94U, the self-cleavage worked out at 0.21.
Next, G41A A65G: 0.03.
Next, U39C U87C: 0.17.
Next, G41A A141G: 0.96; A42G C63U: 0.4.
As to A42U C56A, the self-cleavage was determined as 0.05.
The same measure for G41A A94G: 0.13; for A42U U47C: 1.7; for A42C A138G: 1.05.
The same measure for A42G A107G: 1.7.
Take A42U C84U: the self-cleavage was 0.09.
Next, A42C G97C: 0.11; A42U U132C: 1.01; U39C C145U: 0.99.
Next, U39C C71A: 0.09; A42G G144A: 1.17; A42U A138U: 1.34.
The same measure for G41A A124U: 1.08.
Turning to G41A G125A, the self-cleavage turned out to be 1.46.
The same measure for A42U U45A: 0.95; for A42U U91C: 0.27.
The same measure for U39C G86A: 0.09; for U39C U109C: 1.49; for U39C U109G: 0.74.
For A43C A141U, the self-cleavage came to 1.46.
As for A42G G74A, the self-cleavage stood at 0.8.
Regarding A42G G93U, the self-cleavage was 0.05.
The same measure for A42G G93A: 0.01.
The same measure for A42G A142G: 1.48; for A42G C66U: 0.01.
Next, G40A U91C: 0.21.
In the case of G41A U112C, the self-cleavage amounted to 1.67.
The same measure for U39G U112A: 1.65; for G40A U130A: 1.36.
Next, G40A U130G: 1.19; A42U U104A: 1.15.
Next, G41U A140G: 1.14.
Consider G40A G74U, for which the self-cleavage was found to be 1.45.
Regarding U39C U85G, the self-cleavage stood at 0.04.
Next, A42U A59G: 0.12.
As to U39G A65G, the self-cleavage came to 0.15.
Next, A42G G80C: 0.62.
The same measure for U39G G135A: 1.86; for U39C A77U: 0.96; for G40A U96A: 0.03.
Next, A42G G89A: 0.03; A42G G89C: 0.
As for A42G G89U, the self-cleavage was 0.02.
The same measure for U39C C90G: 0.03.
In the case of U39C C90U, the self-cleavage came to 0.07.
The same measure for A42G C128U: 1.28.
Next, U39C G40C: 1.48; U39C G40A: 0.73; A42U A117G: 1.21.
Next, A42U A117U: 1.28.
With G41A A140G, the self-cleavage worked out at 1.05.
Next, G41U U115A: 1.29.
The same measure for A42G G54U: 1.06.
The same measure for A42G G54C: 0.84; for U39C A124U: 1.26.
Consider A43C U45G, for which the self-cleavage turned out to be 0.66.
As for A43C U45C, the self-cleavage stood at 0.51.
The same measure for G40A A136G: 0.85.
With A42G U46G, the self-cleavage is 1.02.
Next, A42G U46A: 1.11; G40C C146U: 1.54; U39C U46G: 1.75.
For the variant A42G U91C, the self-cleavage worked out at 0.68.
Next, U39G C103A: 1.85; G40A U119C: 0.84.
A43C U108C: the self-cleavage was found to be 1.78.
The same measure for A42G U119C: 1.35; for A42G G82A: 1.95.
Next, U39C A92U: 0.58.
Next, U39C A92G: 0.09; A42G G75A: 1.14; A43C U87A: 0.09.
For A42G U85A, the self-cleavage was found to be 0.15.
The same measure for G41A A59G: 0.07; for G40A G139A: 0.58.
The same measure for U39G U132C: 2.44.
For the variant A43C, the self-cleavage was 1.35.
Next, U39G U47C: 0.52.
Consider A42G A43G, for which the self-cleavage was determined as 1.17.
Next, G40U U102C: 1.
The same measure for G40A A42G: 1.07; for U39C U104C: 1.77.
As for A42G U62C, the self-cleavage stood at 0.08.
For A42C A59G, the self-cleavage came out at 0.45.
The same measure for A42U A50G: 0.92; for A42G U96G: 0; for A42G U96C: 0.12.
The same measure for A42G U115C: 1.67; for G41A A57U: 0.11; for A43C A92G: 0.18.
The same measure for A42U U108C: 1.33.
Take G40A A78U: the self-cleavage was 1.96.
The same measure for G41C U132A: 1.35; for U39C G139U: 0.42; for U39C G139A: 0.58.
The same measure for G40U A50G: 0; for A42G G135A: 1.69; for A42G C145G: 1.14.
Next, G40A C145U: 0.64.
As for U39G U130C, the self-cleavage was 1.25.
Next, G40C A140G: 1.23; A42U A140G: 1.29; A42U A140U: 1.05.
U39C A142G: the self-cleavage amounted to 1.18.
Next, U39C G126A: 1.18.
With U39G A92G, the self-cleavage stood at 0.
For U39G A92U, the self-cleavage came to 1.06.
Consider A42C A124G, for which the self-cleavage is 0.79.
For the variant G41A U119C, the self-cleavage is 1.15.
Next, A42U U130C: 1.32.
Turning to U39G A64G, the self-cleavage worked out at 0.09.
Next, U39C C116U: 1.05.
